B1: mAb 314 (antibody, V domains shown)
VH: EVQLLESGGGLVQPGGSLRLSCAASGFTFSSYAMSWVRQAPGKGLEWVSVISGSGGNKNYADSVKGRFTISRDNSKNTLYLQMNSLRAEDTAVYYCAKKFSYYYYYMDVWGKGTTVTVSS
VL: SYELTQPLSVSVALGQTARITCGGNNIGSKDVHWYQQKPGQAPVLVIYRDSNRPSGIPERFSGSNSGNTATLTISRAQAGDEADYYCQVWDSRTAVFGGGTQLTAL
notes: VH and VL only
B2: mAb 308 (antibody, V domains shown)
VH: EVQLLESGGGSVQPGGSLRLSCAASGFTFSSYAMNWVRQAPGKGLEWISIISGGRRTGITYYAASVKGRFTISRDNSKNTLYLQMNSLRAEDTAVYYCAKMYNYYYYYIDVWGKGTTVTVSS
VL: SYELTQPLSVSVALGQTARITCGGNNIGSKDVHWYQQKPGQAPVLVIYRDSNRPSGIPERFSGSNSGNTATLTISRAQAGDEADYYCQVWDSNTAVFGGGTQLTAL
notes: VH and VL only
B3: mAb 293 (antibody, V domains shown)
VH: EVQLLESGGDLVQPGGSLRLSCAASGFTFSRNAVSWVRQAPGRGLEWVSTISGRGDKTNYVDSVKGRFTISRDNSKNTLYLQMNSLRAEDTAVYYCTKMFSYYYYYMDVWGKGTTVTVSS
VL: SYELTQPLSVSVALGQTARITCGGNNIGSKDVHWYQQKPGQAPVLVIYRDSNRPSGIPERFSGSNSGNTATLTISRAQAGDEADYYCQVWDSSTAVFGGGTQLTAL
notes: VH and VL only
B4: mAb 302 (antibody, V domains shown)
VH: EGQLLESGGGLVQPGGSLRLSCAASGFTFSRYAMSWIRQAPGKGLEWVSVINGSGGDKNYADSVRGRFTISRDNSKNSLYLLMNGLRVEDTAIYFCAKKFSYYYYYMDVWGKGTTVTVSS
VL: SYELTQPLSVSVALGQTARITCGGNNIGGKDVHWYQQKPGQAPVLVIYRDSNRPSGIPERFSGSNSGNTATLTISRAQAGDEADYYCQVWDSRTAVFGGGTQLTAL
notes: VH and VL only
B5: mAb 307 (antibody, V domains shown)
VH: EVHLLESGGGMVQPGGSRRLSCAASGFSFRNSAMSWVRQAPGKGLEWVSVIDGRGTTSNYADSVKGRFTISRDNSKNTLYLQMNSLRAEDTAVYYCAKKYSYYYYYMDVWGKGTTVTVSS
VL: SYELTQPLSVSVALGQTARITCGGNNIGSKDVHWYQQKPGQAPVLVIYRDSNRPSGIPERFSGSNSGNTATLTISRAQAGDEADYYCQVWDSRTAVFGGGTHLTAL
notes: VH and VL only
B6: mAb 291 (antibody, V domains shown)
VH: EVQLLESGGGLVQPGGSRRLSCAASGFTFSSYALSWVRQAPGKGLEWVSVINTRGDSTSYADSVKGRFTISRDNSKNTLYLQMNSLRAEDTAVYYCAKKYSYYYYYMDVWGKGTTVTVSS
VL: SYELTQPLSVSVALGQTARITCGGNNIGSKDVHWYQQKPGQAPVLVIYRDSNRPSGIPERFSGSNSGNTATLTISRAQAGDEADYYCQVWDSRTAVFGGGTQLTAL
notes: VH and VL only
B7: mAb 298 (antibody, V domains shown)
VH: EGQLLESGGGLVQPGGSLRLSCAASGFTFSRYAMSWIRQAPGKGLEWVSVINGSGGDKNYADSVKGRFTISRDNSKNSLYLLMNGLRVEDTAIYFCAKKFSYYYYYMDVWGKGTTVTVSS
VL: SYELTQPLSVSVALGQTARITCGGNNIGGKDVHWYQQKPGQAPVLVIYRDSNRPSGIPERFSGSNSGNTATLTISRAQAGDEADYYCQVWDSRTAVFGGGTQLTAL
notes: VH and VL only
B8: mAb 305 (antibody, V domains shown)
VH: EVQLLESGGGLVQPGGSLRLSCAASGFSFSSFALSWVRQAPGKGLEWVSVISGNGGNKNYADSVKGRFTISRDNSKNTLYLQMNSLRAEDTAVYYCAKKYSYYYYYMDVWGKGTTVTVSS
VL: SYELTQPLSVSVALGQTARITCGGNNIGGKDVHWYQQKPGQAPVLVIYRDSNRPSGIPERFSGSNSGNTATLTISRAQAGDEADYYCQVWDSRAAVFGGGTQLTAL
notes: VH and VL only
B9: mAb 309 (antibody, V domains shown)
VH: ELQLLESGGGLVQPGGSLRLSCAASGFTFSSYAMSWVRQAPGKGLEWVSVISGNGGNKNHADSVKGRFTISRDNSKNTLYLQMNSLRAEDTAVYYCAKKYSYYYYYMDVWGKGTTVTVSS
VL: SYELTQPLSVSVALGQTARITCGGNNIGSKDVHWYQQKPGQAPVLVIYRDSNRPSGIPERFSGSNSGNTATLTISRAQAGDEADYYCQVWDSRTAVFGGGTQLTAL
notes: VH and VL only
B10: mAb 295 (antibody, V domains shown)
VH: EVQLLESGGGLVQPGGSLRLSCAASGITFSSYAMSWVRQAPGKGLEWVSTISGNGGTLYYTDSVKGRFTISRDNSKNTLYLQMNSLRAEDTAVYYCAKKYSYYYYYMDVWGKGTTVTVSS
VL: SYELTQPLSVSVALGQTARITCGGNNIGSKNVHWYQQKPGQAPVLVIYRDSNRPSGIPERFSGSNSGNTATLTISRAQAGDEADYYCQVWDSSTAVFGGGTQLTAL
notes: VH and VL only
B11: mAb 315 (antibody, V domains shown)
VH: EVQLLESGGGLVQPGGSRRLSCAASGFTFSSYAMSWVRQAPGKGLEWVSVINTRGDSTSYADSVKGRFTISRDNSKNTLYLQMNSLRAEDTAVYYCAKKYSYYYYYMDVWGKGTTVTVSS
VL: SYELTQPLSVSVALGQTARITCGGNNIGSKDVHWYQQKPGQAPVLVIYRDSNRPSGIPERFSGSNSGNTATLTISRAQAGDEADYYCQVWDSRTAVFGGGTQLTAL
notes: VH and VL only
B12: mAb 299 (antibody, V domains shown)
VH: EVQLLESGGGLVQPGGSRRLSCAASGFTFRSYAMSWVRQAPGKGLEWVSVISIRGDSTSYADSVKGRFTISRDNSKNTLYLQMNSLRAEDTAVYYCAKKYSYYYYYMDVWGKGTTVTVSS
VL: SYELTQPLSVSVALGQTARITCGGNNIGSKDVHWYQQKPGQAPVLVIYRDSNRPSGIPERFSGSNSGNTATLTISRAQAGDEADYYCQVWDSRTAVFGGGTQLTAL
notes: VH and VL only
B13: mAb 317 (antibody, V domains shown)
VH: EVQLLESGGGLVQPGGSLRLSCAASGFTFSSFAMSWVRQAPGKGLEWVSVISGNGDKKNYADSVKGRFTISRDNSKNTLYLQMNSLRAEDTAVYYCAKKYSYYYYYMDVWGKGTTVTVSS
VL: SYELTQPLSVSVALGQTARITCGGNNIGSKDVHWYQQKPGQAPVLVIYRDSNRPSGIPERFSGSNSGNTATLTISRAQAGDEADYYCQVWDSRTAVFGGGTQLTAL
notes: VH and VL only
B14: mAb 313 (antibody, V domains shown)
VH: EVQLLESGGGLVQPGGSLRLSCAASGFTFSSYAMSWVRQAPGKGLEWVSAITGSGRTTYFVDSVKGRFTISRDNSKNTLYLQMNSLRAEDTAVYYCAKKFSYYYYYMDVWGKGTTVTVSS
VL: SYELTQPLSVSVALGQTARITCGGNNIGSKDVHWYQQKPGQAPVLVIYRDSNRPSGIPERFSGSNSGNTATLTISRAQAGDEADYYCQVWDRKIAVFGGGTQLTAL
notes: VH and VL only
B15: mAb 320 (antibody, V domains shown)
VH: QVQLVESGGGVVQPGRSLRLSCAASGFTFRSYGMHWVRQAPGKGLEWVAIIWYDGSKKYYADSVKGRFTISRDNSKNILYLQMNSLRAEDTAVYYCARQEFNWNDGGYYYMDVWGKGTTVTVSS
VL: DIQLTQSPSFLSASVGDRVTITCRASQGISSYLDWCQQKPGKAPKLLIYAASTLQSGVPSRFSGSGSGTEFTLTISSLQPEDFATYYCQQLDNYPPTFGGGTKVEIK
notes: VH and VL only
B16: GOMP001_bsAb_056 (bispecific antibody)
heavy 1: EVNLVESGGGLVQPGRSLRLSCAASGFTFDDYTMHWVRKVPGKGLEWVSNISWNSGSLGYADEVKGRFTISRDNAKDSLYLQMNSLRVEDTALYYCAKDSSGYGHYNSYYMDVWGKGTTVTVSSASTKGPSVFPLAPSSKSTSGGTAALGCLVADYFPEPVTVSWNSGALTSGVHTFPAVLQSSGLYSLSSVVTVPSSSLGTQTYICNVNHKPSNTKVDEKVEPKSCDKTHTCPPCPAPEAAGGPSVFLFPPKPKDTLMISRTPEVTCVVVDVSHEDPEVKFNWYVDGVEVHNAKTKPREEQYNSTYRVVSVLTVLHQDWLNGKEYKCKVSNKALPAPIEKTISKAKGQPREPQVYTLPPSREEMTDNQVSLTCLVKGFYPSDIAVEWESNGQPENNYKTTPPVLMSDGSFFLASKLTVDKSRWQQGNVFSCSVMHEALHNHYTQKSLSLSPG
light 1: RIQMTQSPSSLSASVGDRVTITCRASQSIRNYLNWYQDKPGKAPKVLIYSASSLQSGVPSRFSGSGSGTDFTLTISSLQPEDFASFYCQQTYSTPITFGQGTRLEIKRTVAAPSVFIFPPSDKQLKSGTARVVCLLNNFYPREAKVQWKVDNALQSGNSQESVTEQDSKDSTYSLSSTLTLSKADYEKHKVYACEVTHQGLSSPVTKSFNRGEC
heavy 2: QVQLVQSGAEVKKPGASVKVSCKASGYTFTSHWMHWVRYAPGQGLEWIGEFNPSNGRTNYNEKFKSKATMTVDTSTNTAYMELSSLRSEDTAVYYCASRDYDYDGRYFDYWGRGTLVTVSSASTKGPSVFPLAPSSKSTSGGTAALGCLVKDYFPEPVTVSWNSGALTSGVHTFPAVLQSSGLYSLSSVVTVPSSSLGTQTYICNVNHKPSNTKVDKKVEPKSCDKTHTCPPCPAPEAAGGPSVFLFPPKPKDTLMISRTPEVTCVVVDVSHEDPEVKFNWYVDGVEVHNAKTKPREEQYNSTYRVVSVLTVLHQDWLNGKEYKCKVSNKALPAPIEKTISKAKGQPRRPRVYTLPPSREEMTKNQVSLVCLVKGFYPSDIAVEWESNGQPENNYKTTPPVLDSDGSFFLYSVLTVDKSRWQQGNVFSCSVMHEALHNHYTQKSLSLSPG
light 2: DIQMTQSPSSLSASVGDRVTITCSASSSVTYMYWYQRKPGDAPKLLIYDTSNLASGVPSRFSGSGSGTDYTFTISSLQPEDIATYYCQQWSSHIFTFGQGTKVEIKRTVAAPSVFIFPPSDEQLKSGTASVVCLLNNFYPREAKVQWKVDNALQSGNSQESVTEQDSKDSTYSLSSTLTLSKADYEKHKVYACEVTHQGLSSPVTKSFNRGEC

Each binder was assayed against T1, cynomolgus monkey CD3 (cynomolgus monkey, UniProt Q95LI5 22-198; Q95LI8 22-171; Q95LI7 23-181) (assay: flow cytometry, cyno primary T cells).
T1 construct: whole, on cells; CD3 on purified cynomolgus monkey CD3 pan T cells; also called cyno CD3; CD3 on cyno primary T cells
T1 sequence (Q95LI5 22-198, chain 1 of 3): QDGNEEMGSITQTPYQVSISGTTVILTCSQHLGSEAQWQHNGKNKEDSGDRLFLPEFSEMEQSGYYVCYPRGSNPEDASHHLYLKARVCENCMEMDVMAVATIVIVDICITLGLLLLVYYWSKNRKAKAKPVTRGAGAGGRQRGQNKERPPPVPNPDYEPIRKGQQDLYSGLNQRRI
T1 sequence (Q95LI8 22-171, chain 2 of 3): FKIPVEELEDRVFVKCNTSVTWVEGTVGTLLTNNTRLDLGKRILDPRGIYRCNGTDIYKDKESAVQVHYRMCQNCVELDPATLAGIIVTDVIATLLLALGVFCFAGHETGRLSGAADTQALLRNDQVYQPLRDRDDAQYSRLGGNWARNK
T1 sequence (Q95LI7 23-181, chain 3 of 3): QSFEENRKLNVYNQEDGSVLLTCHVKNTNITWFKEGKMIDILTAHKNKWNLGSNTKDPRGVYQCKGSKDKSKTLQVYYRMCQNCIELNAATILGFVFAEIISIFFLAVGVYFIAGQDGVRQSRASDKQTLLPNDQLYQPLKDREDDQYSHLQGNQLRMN
How it was run: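 Cells expressing CD3 were exposed to each antibody diluted to 25 nM for 30 minutes at 4° C, then analysed by flow cytometry. The median fluorescence signal was expressed relative to an isotype control, and a value of at least 10 indicated binding.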
B1: no binding (tested: FOI ≥10 = positive; 25 nM). B2: no binding (tested: FOI ≥10 = positive; 25 nM). B3: no binding (tested: FOI ≥10 = positive; 25 nM). B4: no binding (tested: FOI ≥10 = positive; 25 nM). B5: no binding (tested: FOI ≥10 = positive; 25 nM). B6: no binding (tested: FOI ≥10 = positive; 25 nM). B7: no binding (tested: FOI ≥10 = positive; 25 nM). B8: no binding (tested: FOI ≥10 = positive; 25 nM). B9: no binding (tested: FOI ≥10 = positive; 25 nM). B10: no binding (tested: FOI ≥10 = positive; 25 nM). B11: no binding (tested: FOI ≥10 = positive; 25 nM). B12: no binding (tested: FOI ≥10 = positive; 25 nM). B13: no binding (tested: FOI ≥10 = positive; 25 nM). B14: no binding (tested: FOI ≥10 = positive; 25 nM). B15: no binding (tested: FOI ≥10 = positive; 25 nM).

Each binder was assayed against EGFR on HeLa cells (UniProt P00533 25-1210, limits assumed) (assay: cell-based or functional assay).
In the case of B16, the Max killing % is reported as 96.3% and the “X… HeLa EC50” value is reported as 0.0135 nM.
